Source: patent US20030203372A1, “Analysis method” (priority 2000, published 2003)

Tests used:
human macrophages = test: Custom gene array, macrophages with no cytokines, IL-10 or LPS + IFN, in normoxia and hypoxia; assay type: cell-based; details: for mRNA EXPRESSION (experimental condition) #1: #1 no cytokines/normoxia; for mRNA EXPRESSION (experimental condition) #2: #2 no cytokines/hypoxia; for mRNA EXPRESSION (experimental condition) #3: #3 IL-10/normoxia; for mRNA EXPRESSION (experimental condition) #4: #4 IL-10/hypoxia; for mRNA EXPRESSION (experimental condition) #5: #5 LPS/IFN/normoxia; for mRNA EXPRESSION (experimental condition) #6: #6 LPS/IFN/hypoxia
Procedure: Macrophages were derived and cultured as described elsewhere in the specification. A total of 6 experimental conditions were analysed, as shown below. Where cells were treated with cytokines or hypoxia (0.1% oxygen), this was for 6 hr. Lipopolysaccharide (LPS) (from E.coli 026:B6; Sigma), gamma Interferon (IFN) and Interleukin-10 (IL-10) were all used at a final concentration of 100 ng/ml. The effect of gamma Interferon and Lipopolysaccharide is to activate macrophages, with a Th1 biased phenotype, as found in many inflammatory conditions. Interleukin-10 is a Th2 cytokine and de-activates macrophages, and suppresses their effector functions.

[1] = test system: human breast and ovary tumors; test: Custom gene array, breast and ovary tumors versus normal adjacent tissue; details: for gene expression level on custom gene array, Breast nor H / gene expression level on custom gene array, Breast nor K / gene expression level on custom gene array, Ovary nor E / gene expression level on custom gene array, Ovary nor F / gene expression level on custom gene array, Ovary nor G: normal adjacent tissue; for gene expression level on custom gene array, Breast nor H / gene expression level on custom gene array, Breast tum H: patient H; for gene expression level on custom gene array, Breast nor K / gene expression level on custom gene array, Breast tum K: patient K; for gene expression level on custom gene array, Breast tum H / gene expression level on custom gene array, Breast tum K / gene expression level on custom gene array, Ovary tum E / gene expression level on custom gene array, Ovary tum F / gene expression level on custom gene array, Ovary tum G: tumor tissue; for gene expression level on custom gene array, Ovary nor E / gene expression level on custom gene array, Ovary tum E: patient E; for gene expression level on custom gene array, Ovary nor F / gene expression level on custom gene array, Ovary tum F: patient F; for gene expression level on custom gene array, Ovary nor G / gene expression level on custom gene array, Ovary tum G: patient G
Text: A study has been performed to examine the expression of these genes in a selection of breast and ovary tumors, comparing expression with normal adjacent tissue from the same patient. There is expected to be a large degree of variation between different patients, and the study here contains only 5 patients with a range of diagnoses.
Patients are designated as Letters:
E: person. Diagnosis: ovarian adenocarcinoma. Normal ovarian tissue derived from an age-matched separate individual.
: person. Diagnosis: poorly differentiated adenocarcinoma. Normal ovarian tissue derived from the same individual.
G: person. Diagnosis: moderately-differentiated adenocarcinoma. Normal ovarian tissue derived from the same individual.
H: person. Diagnosis: invasive ductal carcinoma. Normnal breast tissue derived from the same individual.
K: person. Diagnosis: invasive ductal carcinoma. Normal breast tissue derived from the same individual.
Data normalisation was done per-chip to correct for differences in labelling and hybridization efficiency. Per-gene normalisation was done such that the expression values of each gene are relative to the median value of that gene throughout the series of samples. By comparing the expression values under normal (nor) and tumor (turn) for a single patient, differences in expression between the normal and malignant tissue of that patient can be inferred.

[2] = Table 17, referenced to median of the gene over 6 conditions
[3] = Table 15, referenced to the median value of that gene throughout all 6 conditions

Row | Molecule | gene expression level on custom gene array, Breast nor H ([1]; Table 19) | gene expression level on custom gene array, Breast nor K ([1]; Table 19) | gene expression level on custom gene array, Breast tum H ([1]; Table 19) | gene expression level on custom gene array, Breast tum K ([1]; Table 19) | gene expression level on custom gene array, Ovary nor E ([1]; Table 19) | gene expression level on custom gene array, Ovary nor F ([1]; Table 19) | gene expression level on custom gene array, Ovary nor G ([1]; Table 19) | gene expression level on custom gene array, Ovary tum E ([1]; Table 19) | gene expression level on custom gene array, Ovary tum F ([1]; Table 19) | gene expression level on custom gene array, Ovary tum G ([1]; Table 19) | mRNA EXPRESSION (experimental condition) #1 (human macrophages; [3]) | mRNA EXPRESSION (experimental condition) #2 (human macrophages; [3]) | mRNA EXPRESSION (experimental condition) #3 (human macrophages; [3]) | mRNA EXPRESSION (experimental condition) #4 (human macrophages; [3]) | mRNA EXPRESSION (experimental condition) #5 (human macrophages; [3]) | mRNA EXPRESSION (experimental condition) #6 (human macrophages; [3]) | also measured
1 | p1K2 (nucleic acid, listed as Homo Sapiens) DNA: AAGTCTCAGAGGCTGGAGAGCAGAGCACCAAGATCGTTCTGGCAGGAACAGCCAGTGGGAGGTTCCAGCTGAGCGCTCCCCAGAGGTGAGCTGATCCCCAGCCACAGCACACAGGACCAGGCTGCGAGAACAGCATCATCAGCATCATGCTATTACAATCCCAAACCATGGGGGTTTCTCACAGCTTTACACCAAAGGGCATCACTATCCCTCAAAGAGAGAAACCTGGACACATGTACCAAAACGAAGATTACCTGCAGAACGGGCTGCCAACAGAAACCACCGTTCTTGGGACAGTCCAGATCCTGTGTTGCCTGTTGATTTCAAGTCTGGGGGCCATCTTGGTTTTTGCTCCCTACCCCTCCCACTTCAATCCAGCAATTTCCACCACTTTGATGTCTGGGTACCCATTTTTAGGAGCTCTGTGTTTTGGCATTACTGGATCCCTCTCAATTATCTCTGGAAAACAATCAACTAAGCCCTTTGACCTGAGCAGCTTGACCTCAAATGCAGTGAGTTCTGTTACTGCAGGAGCAGGCCTCTTCCTCCTTGCTGACAGCATGGTAGCCCTGAGGACTGCCTCTCAACATTGTGGCTCAGAAATGGATTATCTATCCTCATTGCCTTATTCGGAGTACTATTATCCAATATATGAAATCAAAGATTGTCTCCTGACCAGTGTCAGTTTAACAGGTGTCCTAGTGGTGATGCTCATCTTCACTGTGCTGGAGCTCTTATTAGCTGCATACAGTTCTGTCTTTTGGTGGAAACAGCTCTACTCCAACAACCCTGGGAGTTCATTTTCCTCGACCCAGTCACAAGATCATATCCAACAGGTCAAAAAGAGTTCTTCACGGTCTTGGATATAAGTAACTCTTGGCCTCAGAGGAAGGAAAAGCAACTCAACACTCATGGTCAAGTGTGATTAGACTTTCCTGAAATCTCTGCCATTTTAGATACTGTGAAACAAACTAAAAAAAAAAAAGCTTTTGTTTTGTATTTGTTTACTATGAGTCGTTATTTAATTTCTCTTGAAAATAATTTCCTCAAAGCCCAAGTCAATAAA | 1.00 | 0.79 | 0.49 | 1.52 | 0.47 | 1.30 | 2.32 | 0.29 | 1.06 | 0.31 |  |  |  |  |  |  | mRNA EXPRESSION (experimental condition) #1 (human macrophages; [2]): 1.30; mRNA EXPRESSION (experimental condition) #2 (human macrophages; [2]): 0.98; mRNA EXPRESSION (experimental condition) #3 (human macrophages; [2]): 0.51; mRNA EXPRESSION (experimental condition) #4 (human macrophages; [2]): 0.59; mRNA EXPRESSION (experimental condition) #5 (human macrophages; [2]): 1.11; mRNA EXPRESSION (experimental condition) #6 (human macrophages; [2]): 0.91
2 | p1K8 (nucleic acid, listed as Homo Sapiens) DNA: AGCACAGGACACAGCTGGGTTCTGAAGCTTCTGAGTTCTGCAGCCTCACCTCTGAGAAAACCTCTTTTCCACCAATACCATGAAGCTCTGCGTGACTGTCCTGTCTCTCCTCATGCTAGTAGCTGCCTTCTGCTCTCCAGCGCTCTCAGCACCAATGGGCTCAGACCCTCCCACCGCCTGCTGCTTTTCTTACACCGCGAGGAAGCTTCCTCGCAACTTTGTGGTAGATTACTATGAGACCAGCAGCCTCTGCTCCCAGCCAGCTGTGGTATTCCAAACCAAAAGAAGCAAGCAAGTCTGTGCTGATCCCAGTGAGACCTGGGTCCAGGAGTACGTGTATGACCTGGAACTGAACTGAGCTGCTCAGAGACAGGAAGTCTTCAGGGAAGGTCACCTGAGCCCGGATGCTTCTCCATGAGACACATCTCCTCCATACTCAGGACTCCTCTCCGCAGTTCCTGTCCCTTCTCTTAATTTAATCTTTTTTATGTGCCGTGTTATTGTATTAGGTGTCATTTCCATTATTTATATTAGTTTAGCCAAAGGATAAGTGTCCCCTATGGGGATGGTCCACTGTCACTGTTTCTCTGCTGTTGCAAATACATGGATAACACATTTGATTCTGTGTGTTTTCATAATAAAACTTTAAAATAAAATGCAGACAGTT | 1.94 | 1.75 | 0.68 | 1.62 | 1.00 | 2.48 | 1.94 | 0.56 | 2.29 | 0.54 | 0.82 | 0.40 | 1.15 | 0.38 | 91.4 | 68.4 | 
3 | p1F17 (nucleic acid, listed as Homo Sapiens) DNA: CAGCCTTATAAGCTGAGGGAGTGGAGAGGCCCGGGGCCAGGAAAGCAGAGACAGACAAAGCGTTAGGAGAAGAAGAGAGGCAGGGAAGACAAGCCAGGCACGATGGCCACCTTCCCACCAGCAACCAGCGCCCCCCAGCAGCCCCCAGGCCCGGAGGACGAGGACTCCAGCCTGGATGAATCTGACCTCTATAGCCTGGCCCATTCCTACCTCGGAGGTGGAGGCCGGAAAGGTCGCACCAAGAGAGAAGCTGCTGCCAACACCAACCGCCCCAGCCCTGGCGGGCACGAGAGGAAACTGGTGACCAAGCTGCAGAATTCAGAGAGGAAGAAGCGAGGGGCACGGCGCTGAGACAGAGCTGGAGATGAGGCCAGACCATGGACACTACACCCAGCAATAGAGACGGGACTGCGGAGGAAGGAGGACCCAGGACAGGATCCAGGCCGGCTTGCCACACCCCCCACCCCTAGGACTTATTCCCGCTGACTGAGTCTCTGAGGGGCTACCAGGAAAGCGCCTCCAACCCTAGCAAAAGTGCAAGATGGGGAGTGAGAGGCTGGGAATGGAGGGGCAGAGCCAGGAAGATCCCCCAGAAAAGAAAGCTACAGAAGAAACTGGGGCTCCTCCAGGGTGGCAGCAACAATAAATAGACACGCACGGCAGCCACAGCTTGGGTGTGTGTTCATCCTTGTTAAAAAAAAAAAAAAAAAAAAAAAAAA | 1.00 | 0.92 | 0.97 | 1.33 | 1.18 | 1.27 | 0.55 | 0.17 | 1.47 | 1.79 | 0.26 | 1.78 | 0.16 | 0.88 | 1.16 | 2.59 | gene expression level on custom gene array, Breast nor H ([1]; Table 18): 1.00; gene expression level on custom gene array, Breast nor K ([1]; Table 18): 0.92; gene expression level on custom gene array, Breast tum H ([1]; Table 18): 0.97; gene expression level on custom gene array, Breast tum K ([1]; Table 18): 1.33; gene expression level on custom gene array, Ovary nor E ([1]; Table 18): 1.18; gene expression level on custom gene array, Ovary nor F ([1]; Table 18): 1.27; gene expression level on custom gene array, Ovary nor G ([1]; Table 18): 0.55; gene expression level on custom gene array, Ovary tum E ([1]; Table 18): 0.17; gene expression level on custom gene array, Ovary tum F ([1]; Table 18): 1.47; gene expression level on custom gene array, Ovary tum G ([1]; Table 18): 1.79
